The target in the test is T1, A155.
T1 construct: also called antibody-based multispecific antagonist A155
Nature of the test: BLI (Octet RED96), antagonist captured on biosensor, ligand in solution. The source says: The binding sensorgrams were collected using the 8-channel detection mode on the biosensor.
Background: In BLI a coated tip is dipped into the sample, and binding shifts an interference pattern.

B1: TGF-β3 (ligand)
chain: ALDTNYCFRNLEENCCVRPLYIDFRQDLGWKWVHEPKGYYANFCSGPCPYLRSADTTHSTVLGLYNTLNPEASASPCCVPQDLEPLTILYYVGRTPKVEQLSNMVVKSCKCS
notes: also called TGF-33 (misprint in the text)
The term Kd denotes a measure of binding affinity in units of concentration. Regarding B1, the equilibrium dissociation constant (Kd) was around 20 nM.

The record behind these values is patent US20240343788A1 (published 2024).
